In patent JPH10324699A (dated 1998):
Numbering of substitutions follows the chain as printed.

T1: ヒトFas抗原 (ヒトリンパ球細胞株HPB−ALL細胞上) (human, UniProt P25445 26-335)
T1 sequence (looked up): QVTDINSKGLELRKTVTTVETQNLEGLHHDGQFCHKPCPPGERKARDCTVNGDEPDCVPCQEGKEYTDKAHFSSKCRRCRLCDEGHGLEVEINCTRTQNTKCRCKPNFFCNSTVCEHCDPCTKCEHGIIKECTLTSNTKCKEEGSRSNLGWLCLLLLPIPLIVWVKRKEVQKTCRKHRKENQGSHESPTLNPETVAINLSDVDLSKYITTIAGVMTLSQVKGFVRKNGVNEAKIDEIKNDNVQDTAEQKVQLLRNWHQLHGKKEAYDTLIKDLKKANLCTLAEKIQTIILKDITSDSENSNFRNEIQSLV

B1: マウス抗ヒトFas抗体CH11(MBL社) (antibody, mouse IgM)
heavy: EVQLQQSGPELVKPGASVKISCKASGYTFTDYNMHWVKQSHGKSLEWIGYIYPYNGGTGYNQKFKSKATLTVDNSSSTAYMELRSLTSEDSAVYYCARSYYAMDYWGQGTSVTVSSESQSFPNVFPLVSCESPLSDKNLVAMGCLARDFLPSTISFTWNYQNNTEVIQGIRTFPTLRTGGKYLATSQVLLSPKSILEGSDEYLVCKIHYGGKNRDLHVPIPAVAEMNPNVNVFVPPRDGFSGPAPRKSKLICEATNFTPKPITVSWLKDGKLVESGFTTDPVTIENKGSTPQTYKVISTLTISEIDWLNLNVYTCRVDHRGLTFLKNVSSTCAASPSTDILTFTIPPSFADIFLSKSANLTCLVSNLATYETLNISWASQSGEPLETKIKIMESHPNGTFSAKGVASVCVEDWNNRKEFVCTVTHRDLPSPQKKFISKPNEVHKHPPAVYLLPPAREQLNLRESATVTCLVKGFSPADISVQWLQRGQLLPQEKYVTSAPMPEPGAPGFYFTHSILTVTEEEWNSGETYTCVVGHEALPHLVTERTVDKSTGKPTLYNVSLIMSDTGGTCY
light: DVVMTQSPLSLPVSLGDQASISCRSSKSLVHSNGNTYLHWYLQKPGQSPKLLIYKVSNRFSGVPDRFSGSGSGTDFTLKISRVEAEDLGVYFCSQSTHVPPAFGGGTKLEIKRADAAPTVSIFPPSSEQLTSGGASVVCFLNNFYPKDINVKWKIDGSERQNGVLNSWTDQDSKDSTYSMSSTLTLTKDEYERHNSYTCEATHKTSTSPIVKSFNRNEC
chain: DDEATILADNKCMCTRVTSRIIPSTEDPNEDIVERNIRIVVPLNNRENISDPTSPLRRNFVYHLSDVCKKCDPVEVELEDQVVTATQSNICNEDDGVPETCYMYDRNKCYTTMVPLRYHGETKMVQAALTPDSCYPD
B2: 抗ヒトFasヒト化抗体 [B] (pHμM1-1 及び pHκKY2-58 でコ・トランスフェクションしたCOS-7細胞の発現産物; HμM鎖 + VL-KY鎖) (antibody)
heavy: EVQLVQSGAEVKKPGASVKVSCKASGYTFTDYNMHWVKQAHGKSLEWMGYIYPYNGGTGYNQKFKSKATLTVDNSASTAYMELSSLRSEDTAVYYCARSYYAMDYWGQGTLVTVSSGSASAPTLFPLVSCENSPSDTSSVAVGCLAQDFLPDSITFSWKYKNNSDISSTRGFPSVLRGGKYAATSQVLLPSKDVMQGTDEHVVCKVQHPNGNKEKNVPLPVIAELPPKVSVFVPPRDGFFGNPRKSKLICQATGFSPRQIQVSWLREGKQVGSGVTTDQVQAEAKESGPTTYKVTSTLTIKESDWLSQSMFTCRVDHRGLTFQQNASSMCVPDQDTAIRVFAIPPSFASIFLTKSTKLTCLVTDLTTYDSVTISWTRQNGEAVKTHTNISESHPNATFSAVGEASICEDDWNSGERFTCTVTHTDLPSPLKQTISRPKGVALHRPDVYLLPPAREQLNLRESATITCLVTGFSPADVFVQWMQRGQPLSPEKYVTSAPMPEPQAPGRYFAHSILTVSEEEWNTGETYICVVAHEALPNRVTERTVDKSTGKPTLYNVSLVMSDTAGTCY
light: DVVMTQSPLSLPVTLGQPASISCRSSKSLVHSNGNTYLHWYLQKPGQSPKLLIYKVSNRFSGVPDRFSGSGSGTDFTLKISRVEAEDVGVYYCSQSTHVPPAFGQGTKVEIKRTVAAPSVFIFPPSDEQLKSGTASVVCLLNNFYPREAKVQWKVDNALQSGNSQESVTEQDSKDSTYSLSSTLTLSKADYEKHKVYACEVTHQGLSSPVTKSFNRGEC
B3: 抗ヒトFasヒト化抗体 [I] (pHμH5-1 及び pHκRF2-52; HμH鎖 + VL-RF鎖) (antibody, human IgM)
heavy: B2 heavy with K38R, H41P, K43Q, S44G
light: B2 light with K50R, Y92F
B4: 抗ヒトFasヒト化抗体 [C] (pHμM1-1 及び pHκKF2-19; HμM鎖 + VL-KF鎖) (antibody, human IgM)
heavy: B2 heavy
light: B2 light with Y92F
B5: 抗ヒトFasヒト化抗体 [G] (pHμH5-1 及び pHκKF2-19; HμH鎖 + VL-KF鎖) (antibody, human IgM)
heavy: B2 heavy with K38R, H41P, K43Q, S44G
light: B2 light with Y92F
B6: 抗ヒトFasヒト化抗体 [E] (pHμM1-1 及び pHκRF2-52; HμM鎖 + VL-RF鎖) (antibody, human IgM)
heavy: B2 heavy
light: B2 light with K50R, Y92F
B7: 抗ヒトFasヒト化抗体 [D] (pHμM1-1 及び pHκRY2-10; HμM鎖 + VL-RY鎖) (antibody, human IgM)
heavy: B2 heavy
light: B2 light with K50R

These binders were tested against T1, ヒトFas抗原 (ヒトリンパ球細胞株HPB−ALL細胞上) (assay: cell-based or functional assay).

| ED 50 (細胞生存率が50%になるIgMの濃度; HPB-ALL 細胞, WST-1) [ng/mL] | Binder |
| --- | --- |
| 10.7 | B1 |
| 1.1 | B2 |
| 3.4 | B3 |
| 1 | B4 |
| 2.4 | B5 |
| 1.5 | B6 |
| 1.7 | B7 |
